Data on one molecule can be found in article PMC3871196 (Experimental eye research, 2011).

The experiment addresses purified Ca/CaM from bovine brain (bovine, UniProt P62157 1-149). The experiment can be described thus: fluorescence polarisation. On the technique in general: Fluorescence polarisation rises when a labelled molecule tumbles more slowly, as on binding a larger partner.

A word on the Kd: it is the concentration at which binding is half-saturated. As to ETWKAFLESVKKLGKG [PP-C peptide], the Kd came to 190 nM.
